Results taken from patent publication US6570069B1, “Nucleic acids encoding plant inhibitors of apoptosis and transgenic cells and plants expressing them” (priority 2000, dated 2003).
Entries after “also recorded” stand apart in the source; their conditions may differ.

B1: SfIAP: cellular IAP cloned from Spodoptera frugiperda, protein of 377 amino acids (SEQ ID NO:3); GST-fusion when recombinant (protein, listed as Spodoptera frugiperda)
chain: MWSCSLPCWNTKKSGLQMDITKVASNGSSSTLTLFKSGSLEAKIRPLAPLMLPTPSYDSNAGSPSLSPSTPCSSSSFSIDKTDNHDTFGFSADTVDMRKEDERMKTFEKWPVSFLSGEQLARNGFYYLGRRDEARCAFCKVEIMRWVEGDDPAKDHQRWAPQCPFVRKLNGTAAADTGSSGQDECGARAAPSGTSPPRMAGPVHPRYASEAARLRSFKDWPRCMRQKPEELAEAGFFYTGQGDKTKCFYCDGGLKDWENHDVPWEQHARWFDRCAYVQLVKGREYVQKVISEACEVSASEAERDVAPARTAEPSPPAEAPENSVDDSKLCKICYAEERNVCFVPCGHVVACAKCALAADKCPMCRRTFQNAVRLYFS
modifications: GST fusion when recombinant; fall armyworm inhibitor of apoptosis protein (SfIAP)
B2: CpIAP: baculoviral (CpGV) inhibitor of apoptosis protein; complete ORF expressed myc-tagged or as GST-fusion (protein)
chain: MSDLRLEEVRLNTFEKWPVSFLSPETMAKNGFYYLGRSDEVRCAFCKVEIMRWKEGEDPAADHKKWAPQCPFVKGIDVCGSIVTTNNIQNTTTHDTIIGPAHPKYAHEAARVKSFHNWPRCMKQRPEQMADAGFFYTGYGDNTKCFYCDGGLKDWEPEDVPWEQHVRWFDRCAYVQLVKGRDYVQKVITEACVLPGENTTVSTAAPVSEPIPETKIEKEPQVEDSKLCKICYVEECIVCFVPCGHVVACAKCALSVDKCPMCRKIVTSVLKVYFS
modifications: left off: a dimerising Fc or GST
notes: complete ORF expressed myc-tagged or as GST-fusion

What was measured:
[1] = test system: caspase-3 and similar DEVD-cleaving proteases in cell extracts treated with cyto c; experiment: Cell-free caspase activation induced by cyto c in HEK 293 cytosolic extracts; format: biochemical, human; details: for suppression of pro-caspase-3 processing (immunoblot): cyto c-treated extracts; for effect on hydrolysis of Ac-DEVD-AFC (caspase activity): recombinant protein, cell extracts treated with cyto c
Description: (§1) Caspase activity was assayed by release of 7-amino-4-trifluoromethyl-coumarin (AFC) from Ac-DEVD or Ac-LEHD-containing synthetic peptides (Calbiochem) using continuous-reading instuments as described (Quan, L. T. et al., (1995) J. Biol. Chem. 270:10377-10379).
(§2) Cytosolic extracts were prepared as described (Deveraux, Q., Takahashi, R., Salvesen, G. S. & Reed, J. C. (1997) Nature 388, 300-303) using human embryonic kidney (HEK) 293 cells. Cells were washed with ice-cold buffer A (20 mM HEPES pH 7.5, 10 mM KCl, 1.5 mM MgCl2, 1 mM EDTA and 1 mM DTT), suspended in 1 volume of buffer A, incubated on ice for 20 mins, and then disrupted by 15 passages through a 26-gauge needle. Cell extracts were purified by centrifugation at 15000 g for 12 mins and supernatants were stored at −80 ° C. For initiating caspase activation, either 100 nM of purified recombinant caspase-8 or 1 μM horse heart cytochrome c (Sigma) together with 1 mM dATP was added to extracts (Deveraux, Q. L., et al., (1998) EMBO J. 17, 2215-2223).
(§3) To further explore the mechanisms by which SfIAP and CpIAP inhibit mammalian apoptosis, a cell-free system in which exogenously added active caspase-8 or cyto c induces activation of caspase-3 and similar proteases, as measured by hydrolysis of Ac-DEVD-AFC (Quan, L. T. et al., (1995) J. Biol. Chem. 270, 10377-10379) was used. Caspase-8 and cyto c trigger the same apoptosis pathways in extracts which are activated by Fas and Bax in intact cells.

[2] = test system: DEVD-cleaving proteases in cell extracts treated with caspase-8; experiment: Cell-free caspase activation induced by active caspase-8 in HEK 293 cytosolic extracts; format: biochemical, human; details: recombinant protein
Description: as §1, §2
as §3, with “Caspase-8 and cyto c trigger the same apoptosis pathways in extracts which are activated by Fas and Bax in intact cells.” left out

[3] = test system: caspase-9-induced caspase activation and apoptosis in 293T cells; experiment: Caspase-9 overexpression in 293T cells: caspase activity and apoptosis; format: cell-based, human; details: 24-36 hours after transfection
Description: HEK293 and 293T cells were maintained in DMEM (Irvine Scientific) supplemented with 10% fetal bovine serum, 1 mM L-glutamine and antibiotics. 293 cells (10^6) were co-transfected using Superfect with 0.1 μg Green Fluoresence Protein (GFP) marker plasmid pEGFP (Clontech), 0.25 ug of either pcDNA3-Bax or pcDNA3-Fas, and 1.5 μg of either pcDNA3myc-SfIAP or pcDNA3myc-CpIAP. Alternatively, cells were co-transfected with 0.35 μg pcDNA3-caspase-9-Flag and 2.1 μg of either SfIAP or CpIAP. […] In some cases, lysates were prepared from transfected cells, normalized for total protein content, and analyzed by SDS-PAGE/immunoblotting as described (Deveraux, Q., et al., (1997) supra; Deveraux, Q. L., et al. (1998) supra; Roy, N. et al. (1997) supra; Takahashi, R., et al., (1998), supra.).
To test this hypothesis, 293T cells were transfected with plasmids encoding pro-caspase-9 alone or in combination with SfIAP and CpIAP. Caspase activity and apoptosis were then assayed 24-36 hours later.

caspase-7 = molecular target: T1, caspase-7 (Homo sapiens, UniProt P55210); experiment: Binding to recombinant purified caspase-7; design: species or system mammalian
T1 construct: His6 (C); made in house
T1 sequence (P55210 24-198 limits assumed): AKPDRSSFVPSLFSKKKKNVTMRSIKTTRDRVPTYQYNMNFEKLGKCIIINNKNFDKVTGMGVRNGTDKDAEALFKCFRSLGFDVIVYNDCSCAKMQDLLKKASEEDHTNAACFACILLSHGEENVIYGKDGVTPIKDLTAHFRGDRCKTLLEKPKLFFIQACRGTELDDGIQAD
T1 sequence (P55210 207-303 limits assumed): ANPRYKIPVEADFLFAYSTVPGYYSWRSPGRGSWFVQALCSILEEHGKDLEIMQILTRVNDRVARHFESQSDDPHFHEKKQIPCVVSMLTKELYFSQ
Description: pGEX4T-1-SfIAP and pGEX4T-1 -CpIAP plasmids were introduced into E. coli strain BL21 (DE3) containing the plasmid pT-Trx. GST fusion proteins were obtained by induction with 0.05 mM IPTG at 25° C. for 8 hours, then purified using glutathione-Sepharose, essentially as described (Deveraux, Q., Welsh, K. & Reed, J. Methods of Enzymology in press). Caspases-3, and -7, containing C-terminal His6-tags, and caspase-8 containing an N-terminal His6-tag were purified as described previously (Stennicke, H. R. & Salvesen, G. S. (I1997) J. Biol. Chem. 272, 25719-25723; Stennicke, H., et al., (1998) J. Biol. Chem. 273, 27084-27090; Stennicke, H., et al., (1999) J. Biol. Chem. 274, 8359-8362). Caspase-9 lacking the CARD domain (ΔCARD-caspase-9) was constructed by truncating the cDNA and introducing a start codon substituting Val139. The resulting cDNA was subcloned into pET-23b and expressed in BL21 (DE3), yielding fully processed enzyme when cells were induced using 0.2 mM IPTG at OD600=0.6 for 4 hrs (Stennicke, H., Deveraux, Q., Humike, E., Reed, J., Dixit, V. & Salvesen, G. (1999) J. Biol. Chem. 274, 8359-8362). […] Concentrations of purified enzymes were determined from absorbance at 280 nm based on the molar absorption coefficients: caspase-3 (A280=26,000M−1 cm−1), caspase-7 (A280=24,500 M−1 cm−1), caspase-9 (A280=30,010M−1 cm−1). […]

| Molecule | suppression of pro-caspase-3 processing (immunoblot) [1] | effect on hydrolysis of Ac-DEVD-AFC (caspase activity) [1] | effect on DEVD-cleaving proteases [2] | inhibition of caspase-9-induced apoptosis [3] | suppression of activation of downstream DEVD-cleaving caspases induced by overexpression of caspase-9 [3] | binding to caspase-7 (caspase-7) |
| --- | --- | --- | --- | --- | --- | --- |
| B1 | suppressed the processing of pro-caspase-3 in cyto c-treated | completely blocked the hydrolysis of Ac-DEVD-AFC; also recorded: able to inhibit cyto c-induced activation of DEVD-cleaving caspases | no effect on DEVD-cleaving proteases | inhibited caspase-9-induced apoptosis | markedly suppressed activation of downstream DEVD-cleaving caspases | neither bound |
| B2 | suppressed the processing of pro-caspase-3 in cyto c-treated | completely blocked the hydrolysis of Ac-DEVD-AFC | no effect on DEVD-cleaving proteases | inhibited caspase-9-induced apoptosis | markedly suppressed activation of downstream DEVD-cleaving caspases | neither bound |
